Data published in the supplement of paper PMC9170038.

Test system: K4 kissing-loop RNA reporter
Test: apparent KD of K4 kissing-loop reporter; higher = weaker reporter binding
Conditions: Eterna round: R107
Method: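 RNA-MaP round R107: designed RNA switches with theophylline, tryptophan, arginine or FMN aptamers are transcribed on-chip within common flanks. They are titrated with a labelled K4 kissing-loop RNA reporter in RNA-MaP buffer (100 mM Tris pH 7.5, 80 mM KCl, 4 mM MgCl2), without ligand or with the indicated ligand. Median apparent KD per design.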

[1] = input ligand: theophylline 20 uM
[2] = input ligand: tryptophan 2.4 mM
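Note: bound reporter read as fluorescence of individual clusters on recovered sequencing chips by microscopy, with normalized cluster intensities fitted with a binding model.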

Sequence | apparent KD of K4 kissing-loop reporter (input ligand: FMN 200 uM) | apparent KD of K4 kissing-loop reporter (input ligand: arginine 13.2 mM) | apparent KD of K4 kissing-loop reporter (input ligand: none) | apparent KD of K4 kissing-loop reporter [1] | apparent KD of K4 kissing-loop reporter [2]
AUGUCUUAUAAACUCAUGGUUUCGACAGAUACCAGCUUCGAGAGGAGCCCUUGGCAGCUGCAUGAGUGAUGUUCAUGUACGAAGA [KL-XTheoA6] | 370 nM | 336 nM | 516 nM | 315 nM | 301 nM
AUUAAUAACAGAGGAUAUGCAUUAUUAUUAUUUUUAAAUAAUAAAUGCAGUGAUGUUGCAUAUUAAGCAGAAGGCUGAUUUAUUU [JR_SSFMNB_Sub011] | 137 nM | 516 nM | 484 nM | 439 nM | 353 nM
AUUAUAAAGACGGCCGCCACUGAGAGUAGUGAUGUUACUCUUUUCCUUUAGAUAUUAUAUUUUAUCAGGACCGGGUUUUUUGAUU [JR_Nu_ExcTryptoB_Sub025] | 97.3 nM | 86.7 nM | 90.3 nM | 88.1 nM | 91.9 nM
AUUAUAAAGUCGGCCGCCACUGAGAGUAGUGAUGUUACUCUAUUCCUUUAGAUAUUAUAUUUUAUCAGGACCGGGACAUCAGAUU [JR_ExcTryptoB_Sub019] | 332 nM | 341 nM | 317 nM | 290 nM | 228 nM
AUUAUAAAGUCGGCCGCCACUGAGAGUAGUGAUGUUACUCUUUUCCUUUAGAUAUUAUAUUUUAUCAGGACCGGGACAUCAGAUU [JR_ExcTryptoB_Sub020] | 198 nM | 170 nM | 208 nM | 180 nM | 162 nM
AUUCGUUUAUGUGAUACCAGACUUUGCAGUGAUGUUGCAUUAAUUAAAGAUGUUUAGUUUGUCCCUUGGCAGCACUAUUUAUUUA [JR_SSTheophyB_Sub002] | 43.1 nM | 84.4 nM | 49.6 nM | 83.3 nM | 38.9 nM
AUUCGUUUAUGUGAUACCAGACUUUGCAGUGAUGUUGCAUUAAUUAUUGAUGAUUAGUUUGUCCCUUGGCAGCACUAUUUAUUUA [JR_SSTheophyB_Sub003] | 54.6 nM | 105 nM | 63.8 nM | 104 nM | 47.7 nM
AUUCUGUUUUUGAUGUUUAUUGUAUAAUGGCAGGAUAUCGUAGAAGCGAGAAGGGCUUUUAUGCGUUAUGAGUGAUGUUUGUAGG [eyeefvmullin] | 373 nM | 260 nM | 284 nM | 319 nM | 256 nM
AUUCUUUUUUUGAUGUUUUUUGUAUAAUGGCAGGAUAUCGUAGAAGCGAGAAGGGCUUUUAUGCGUUAUGAGUGAUGUUUGUAGG [szeewvmullin] | 254 nM | 262 nM | 261 nM | 340 nM | 205 nM
AUUUAUGUUUCGGCCGCCACUCCACGUACUCAGAGAGAGUGAUGUUCUUUUUAUUAACGUCUAUGGAGGACCGGGAAGAGGUGAG [theeternabot_exclusion_KL_Trp_B_37] | 672 nM | 640 nM | 930 nM | 931 nM | 536 nM
AUUUGUUUAUGUGAUACCAGACUUUGCAGUGAUGUUGCUUUUAUUUUUGAAUUUUAAAUAGUCCCUUGGCAGCACUAUGUAUUUA [JR_SSTheophyB_Sub009] | 65.5 nM | 132 nM | 82.8 nM | 137 nM | 60.6 nM
AUUUUGGUUUAGAGUGAUGUUCCUUGUGUUCGAGGACCGGUACGGCCGCCACUCGGGUAGAAAAGAAAAGAAAUGUUUGAUUUUU [BDazzled - #10 SS Tryptophan A] | 251 nM | 105 nM | 548 nM | 92.8 nM | 123 nM
CAGACAUGCGGUAGGUUCAAGCGCUGGGAAGGAGCGCAGAUGACUGCAGGUAGGUCGCCCAGUGAUGUUGGGCUUUCCACCUAUG [Onbeenbi] | 110 nM | 122 nM | 120 nM | 150 nM | 107 nM
CAUAAAAGGUGGAAGACGAAUCGGUGUCGCCGAGGACCGGUACGGCCGCCACUCGGUCAUCAAAUCCUUCCCGAGUGAUGUUCGA [theeternabot_sameState_KL_Trp_A_5] | 382 nM | 439 nM | 501 nM | 444 nM | 258 nM
CAUACCCAGUGAUGUUGGGUCGGUACCGAUACCAGUCGUACAGCCGACCCUUGGCAGCGGUAGCAUUGCCCGGCGUCGGCUUGUG [theeternabot_exclusion_KL_Theo_A_17] | 767 nM | 581 nM | 625 nM | 445 nM | 381 nM
CAUACGCAUGGAGGAUAUGAGAUUACUCAUAUCAUUUAAUAUUCUCAGUGAUGUUGAGAUUUAGACUCAGAAGGCCAUGUGUAUG [Ex FMN B 13] | 302 nM | 310 nM | 350 nM | 357 nM | 317 nM
CAUACGCAUGGAGGAUAUGAGAUUUCUCAUAUUAUUUAAUAUUCUCAGUGAUGUUGAGAAUUAAACUCAGAAGGCCAUGUGUAUG [Ex FMN B 4] | 296 nM | 149 nM | 164 nM | 181 nM | 163 nM
CAUAUAUAUAGAGGAUAUCGAGUAGAGUGAUGUUCUGCCUGGGUUGGCUCGCAAGGGCCUUCCCAGCGAGAAGGCUAUAUAUAUG [harrys-mod#1ED5.33] | 225 nM | 399 nM | 502 nM | 431 nM | 482 nM
CAUCACGCAAUCACGGAUGCAAGCAUUGAUACCAGAACCGAUUAUUUCCCUUGGCAGCAACACGGAGUGAUGUUCCUAGCAUAUA [theeternabot_sameState_KL_Theo_A_21] | 71.2 nM | 122 nM | 94 nM | 209 nM | 75.5 nM
CCAAUCAGUUACGAUACCAGUCUAAUAUAUUUGAUCAAAACCCUCGCCGAGUGAUGUUCGGACCCUUGGCAGCGUCUGGGACAGG [fcctmullin] | 502 nM | 417 nM | 446 nM | 474 nM | 394 nM
CCAUCGCUAUUCGAUACCAGCCAAGAGGUCUUUGGCCUCUUAAUGGAGUGAUGUUCCAUUGGCCCUUGGCAGCGAAUAGUGAUGG [Theophylline B K4 18] | 771 nM | 489 nM | 723 nM | 823 nM | 798 nM

Sequence | apparent KD of K4 kissing-loop reporter (input ligand: FMN 200 uM) | apparent KD of K4 kissing-loop reporter (input ligand: arginine 13.2 mM) | apparent KD of K4 kissing-loop reporter (input ligand: none) | apparent KD of K4 kissing-loop reporter [1] | apparent KD of K4 kissing-loop reporter [2]
CCAUCGCUAUUCGAUACCAGCUACUUAGUGAUGUUAAGUUAAAAUAAAUUGUAGAUUAAAAGCCCUUGGCAGCGAAUAGUGAUGG [Theophylline B K4 19] | 149 nM | 134 nM | 150 nM | 103 nM | 136 nM
CCAUCGCUAUUCGAUACCAGCUCCUUAGUGAUGUUAAGGUUUUACGCUCUGUAGGAGCGAAGCCCUUGGCAGCGAGUAGUGAUGG [#04 K4 Theophylline B Same State] | 1120 nM | 832 nM | 1060 nM | 716 nM | 1110 nM
CCGGGCGGCCGAAGGAGCGGGCGGGCCCGAGUGAUGUUCGGGUGGACCGUGAGGUCCGGUGCCCAGGUAGGUCGCGGUUCCGCCC [#2 Same State - Arginine B Attempt #7 (HarryS)] | 156 nM | 123 nM | 157 nM | 115 nM | 134 nM
CCUAUCUCAUACGAUACCAGUCAAUGAUAUUUUAUCAAUGCCAUCACCGAGUGAUGUUCGGACCCUUGGCAGCGUAUGGGAUAGG [whbob_Ex_Theo_B_sa101] | 266 nM | 212 nM | 253 nM | 417 nM | 238 nM
CCUAUCUCAUACGAUACCAGUCAAUUAAAACGAGUGAUGUUCGAAAAUUUGCCAUAUAAUGACCCUUGGCAGCGUAUGGGAUAGG [Ex Theophylline B K4 7] | 187 nM | 196 nM | 194 nM | 197 nM | 164 nM
CCUAUCUCAUACGAUACCAGUCUACGAUAUUUUAUCGUUGCCAUCACCGAGUGAUGUUCGGACCCUUGGCAGCGUAUGGGAUAGG [Ex Theophylline B K4 5] | 340 nM | 277 nM | 355 nM | 544 nM | 346 nM
CCUAUCUCAUACGAUACCAGUGAAAUAAUAUUUAUAAGCAGUGAUGUUGCAUUCCAAGAACACCCUUGGCAGCGUAUGGGAUAGG [Ex Theophylline B K4 19] | 168 nM | 187 nM | 178 nM | 189 nM | 143 nM
CCUGCGGCUUCCGGCGGGCCCGAUUUAUAAAAGGAUAUGUGCGUACACAGAAGGUUUAACGAGGGACCGAGAGUGAUGUUCUCCU [theeternabot_sameState_KL_FMN_A_33] | 585 nM | 174 nM | 316 nM | 370 nM | 418 nM
CGAAGAUUCCAUGAUACCAGCCUCGGCCCAUAGAGUGAUGUUCUAGUCGGGUCCGUUCGCGGCCCUUGGCAGCAUUUCACCACGA [theeternabot_sameState_KL_Theo_B_44] | 197 nM | 172 nM | 178 nM | 216 nM | 159 nM
CGAGUACAUUGCGAUACCAGCGAUAGCAGUUCAACGCGCAGUCCGUUUAGUGAUGUUAGACGCCCUUGGCAGCGCUUCCUGGCAA [theeternabot_exclusion_KL_Theo_B_44] | 519 nM | 324 nM | 460 nM | 520 nM | 393 nM
CGAGUGAUGUUCGUUCGUUUAUUUCGGUGACAGGAUAUGCGGAAACGCAGAAGGGUCACCUUUGAGUUACCGGAAUUAACGUUAU [Ex FMN A 29] | 564 nM | 453 nM | 623 nM | 558 nM | 455 nM
CGAGUGAUGUUCGUUUUUUAAUUUUUUUGACAGGAUAUGCGGAAACGCAGAAGGGUCACCUUUGAGUUAAAAGAAUUUAUUUUUU [Ex FMN A 17] | 321 nM | 236 nM | 295 nM | 298 nM | 199 nM
CGAUAUAAGAAUAUAUAUCUCUAUUCAGAAGGAGCGUGUUUGUACACAGGUAGGUCGCUGAAAUUUAAACUAGUGAUGUUAGACU [JR_SSArginiA_Sub002] | 1170 nM | 878 nM | 1210 nM | 1000 nM | 890 nM
CGCAGUGAUGUUGCGAGUAACUACAGGGAAGGAGCGCGGUAGUCCGCAGGUAGGUCGCCCACGCAGUGAUGUUGCGUCAUAGGGU [Exclusion Arg A GF7] | 110 nM | 109 nM | 104 nM | 118 nM | 97.3 nM
CGCAGUGAUGUUGCGAGUUCAUUCAGGGAAGGAGCGCCACAGAUGGCAGGUAGGUCGCCCACGCAGUGAUGUUGUGUAUUCGGGU [Exclusion Arginine A GF 2] | 202 nM | 153 nM | 165 nM | 170 nM | 137 nM
CGCAGUGAUGUUGCUUAUAUUCUUGGUUAACGAGGACCGGUACGGCCGCCACUCGAUUUCUAUCUAUUCCAGUGUUAAUUUGAGU [JR_ExcTryptoA_Sub005] | 364 nM | 429 nM | 419 nM | 568 nM | 271 nM
CGCAGUGAUGUUGCUUUUAUUCUUGGUUAACGAGGACCGGUACGGCCGCCACUCGAUUUCUAUCUAUUCCAGUGUUUUUUUGAGU [JR_ExcTryptoA_Sub004] | 261 nM | 374 nM | 304 nM | 464 nM | 195 nM
CGCGCCCAGCCGGAUACCAGUGACCCGCUGGGAACCGCGGGCCCAGAGUGAUGUUCGGGACACCCUUGGCAGCCGCCUGGGCGGG [#2 Same State - Theophylline B Attempt #16 (HarryS)] | 1350 nM | 606 nM | 597 nM | 460 nM | 608 nM
CGGAGUGAUGUUCCUUUUAUUAAUUAUUUACGAGGACCGGUACGGCCGCCACUCGAUUUAGCUUUUAUUUAAUGCUUGGAUGUUU [JR_SSTryptoA_Sub004] | 130 nM | 212 nM | 140 nM | 208 nM | 66.3 nM
CGGCGGAGUGAUGUUCUGCUCGCUCCGGAUACCAGCUUCGCCAGAGGCCCUUGGCAGCCGGGCGGCCCAGUGAUGUUGGGUUGCG [Same State Theophylline A GF 17] | 297 nM | 243 nM | 277 nM | 246 nM | 237 nM
CGUAGCAGAUGAAGGAGCGGCUACCUGUAUCAGGCAACUGCCUGAGUGAUGUUCAGGUAUAGCCAGGUAGGUCGCAUCUGCUACG [Arg B Ex t9b] | 240 nM | 206 nM | 214 nM | 211 nM | 212 nM
